From the domain aggregation screens of Martell et al. (2025)

Assay: soluble fraction after stress (log2 fold change); higher = more stays soluble; pooled small domains, quantitative proteomics
Conditions: stress: pH 4
How it was run: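 Custom libraries of small protein domains were pooled and measured with high-throughput quantitative proteomics after pH 4 stress. The read-out is the fold change in the amount of each domain that stays soluble after the acid stress, taken as a measure of aggregation propensity. Fold changes are on a log2 scale, and higher values mean more of the domain stayed soluble.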

Sequence | soluble fraction (log2)
HMYDFGVILQKLRKEKGFTQEQLARLIHKESSIISRYEKGLQNPTFETVKEFAAIFNVSMDYLAG | -0.255
HMKKSIRIFELMKAKVAAEIFDQMILEGKIEDVFDIIVRLKDSNVSNIMKTMSVENSSRLVQKLERYNKD | -0.626
HMLYGRRFQVEGLNLERYLRAAADSGIPLKGARRFGRTLTGVAAEEHMAALEALARQGGWLFTPLEAVGAN | -0.0895
HMSTEAVVMSSSVSVKSSPDKASTDLFVLHEGTKVRTVSELGDWREIVIADGKKGWVEARTIET | 0.151
HMGKVTILSNPVKDALVIMGLHNAETIDVRLFDNTGRLVMQGSQSRMDISSLSPGLYILQVNGKILKVIK | -0.222
HMQNLETVEEIKELALNYLDKYQPSKKSLQVYLFRKAIDAQSNSVEKSEILKKIETVLTDLEEQGILNDAL | -0.139
HMNPETIHNDYKAFIKFAFSGLSYYSKVWNQNREMITPGLLETLWQKYRHLSIGEIETILEKIIKEG | -1.24
HMSYGKVQFVIDAKDAVLSIDGKETDYEKPVKLTYGSHTITVYSSDYDTWKRNLYVNSEKSTVVINLA | -0.0156
HMEREQNIEHGRAIVERELKRLGLSDVYTIADIATALRHDDVDQFLAKIGFGDIQSTQIGGAIAALQQR | -0.328
HMNASVIADLFRQTGASVMIHGHTHRPDIHALEANGDAAFRAVLGAWHTEGSMIRVTQDDVTLIAFP | 0.173
HMKLIPLTDMRGQLRSGAPLPWGVRDAQGNLLLGKGHVIASDDMLEALLARGMFVDAEEAKAARG | 0.105
HMESPELIHILKEAEWQIWQQIQGLPEKQRIAMTLFAMDDLSYQEIADVMKVSVSAIESLLFRARTQLKKY | -0.71
HMIKIEDILNVESVELSDSEYKKFLNGILINVKNLENGWAKVYSGNEFKGFGIVDKNLLKRKIVID | -0.407
HMENQMIIYIDENDENKRLDSYLSEITPDYSRSKIQNFIKNGNVTVNDSNKKPSYLLKENDKISFELPQQ | -0.158
HMKEQYDLNDREQQFISLVANGLNNKEIAETLFLSEGTVRNYLSNLLDKLGLRDRTQLAIFFYQHL | -1.74
HMVREVGYNAFLAMLDSGAVKEVARDESEGQITFLATDEKGKERVYKTGIWPDDTLTERLNTAGVEFA | -0.941
HMESKPLTPSEIKKLRMDANMTQAGLAEVLGMTVKAVEAWESGRNIPSGAADKILRVMQKHPSVIGMMQS | 0.247
HMQLSQLLQPFDINAFKGHPLYTEENVKMFNDYTNRVKEWTKGTPYEQYWVTKEGQPTMLAWDSFKK | -1.07
HMSSLTPRETEVLSRMAQGDANTSIAERLVITEKAVQKHINAIFAKLGLAEEPTSARRVLAVLAFLR | -0.407
HMTVLPTENDAKALVGLNEDEAVKIIEGNGWTYRIGSRDGEQFMLTEDYSTSRLTLGIEKSIVVTATI | -0.56
HMQDTQAEEGETLLDALRRIHPESSTGTLRRMLTQGRVQLDGDSVHAAKTVLSAGQRVEVVAR | 0.088
HMALTLDEARTQGRVGETFYGYLVALKTDAETEKLVNDINAERKASYQQLAKQNNVSVDDIAKLAGQKLV | -0.113
HMSDPDPAEQALLRQFMTRYAAYRRRGQHPAGAFRTASLEVFGQEPSGDLRDVIVDLESGLV | -0.59
HMAPRLTERERQVLQLIAEGLTSMQIGDRLHIAASTVDVHRRNLMRKLDLHNVADLTRYAITQGISP | 0.00348
HMSKFSDTLVYLRKRAGFSQQELADKMEVSRSLVGMYESGQRMPSYEMLEALADIFNVNIDFLTGH | -0.586

Sequence | soluble fraction (log2)
HMQSDQLSDREREILRLIGSGRTNQEISQELQVSGSTVRTHLQHILDKLGLENRNQAVLYAIRIGLAAPP | -0.372
HMDWVAYGAELRRRRLLAGWTVAELSRRINLSGMTIHQIEKGRGRLRPSELTLAKLAAALGMPTP | ≥ 0.43
HMHPEPDPVLFIDGKEYPYDKLSELDETRVQSMTILPKKSAVKKYGDKYANRSIMEITLKKEN | 0.22
HMILQTLSERVTETLRDWILHGHFKPGDKIEEVPIAERMGVSRTPVRAAFATLTNEGLIDHQPNRGYQVRV | 0.201
HMGTPKMPLSLYLSMVENLRSLKRFALVNQQVKDGFVFFNDVAGIKRLQELLNYHNTGEKPSE | -0.287
HMNYIEWKNTFKKYLYLLPIKEEKETLAYFDEQYNKLNPKDLDNVENIFSDPIDKAAFVVAFYLEMEDEIK | -0.802
HMNARSTSYSDFIARVDKDEVASVRLDGETVTYQAADGTTYTTVKPESDPIAERLIAKGIEVNVVRQ | -0.519
HMPAASDALAGELAQIARLDIAKLLAGDLSEADWSRITSATVQLSERHPDASDELTALVERIDTAYSARAT | -1.32
HMNQTTYTVLYSGMDPADTGKVLTALNEMGVDARTQGEDTVLVPADRADEIRLELAAQGYPTS | -0.0312
HMGTSFKITFYKDAFQVDDGPIRMLNDPANQKFVDEVSQGYAPKELIGQGGKAPEIDIIDKRSENAPT | -0.0971
HMDSSNLSLIAGVGPTIEKKLRAAGITSWEQIAAWTEADVAKYDEELNLRGRITRDEWIEQAKELLAGKPP | 0.309
HMWAVDFVLLDKDDQRIGNAVAYRDDRTKGMDEEVYRTVPEEELYASTGIQKQIFNSIYQLMAWKK | -1.25
HMENWMPNLVNQDKRLAINTLRELGFTEEAGNLVIREETSEDVTKDYVISTDPVAETDLADVEKVTLVVSS | -0.219
HMLTGISALKPTEAFPDEIFYEIFEIEDNIERTQYIESLRNTARQLKRVTEFNNLYKSFVLDYAQRQKQ | -0.375
HMGADGIPGKNGENGETSYVHFAYATSADGKTGFSTTDTVGKTYMGQYADFEKADSEDPTKYRWGKFQGP | ≥ 0.43
HMGSRAEAKEFLQTMLADGRQLATDMEEARQAHDIADRTLRRARKELNVQVYRDGNAWYWELPTPIK | -0.567
HMDAEWRTLTLAPEQHQQRLDRALADSLPEFSRSYVQQLIDTGMVRVNGVLAAKSAQRVKALDQVQVELR | -0.186
HMGVRLAPEVDRIPYGQMHPNLKKVKDLYEASYKAYVQALSSGNQALAKEKLEEFQSTKARYQRALSAYT | 0.195
HMDILPRMVASEMRAVGVPPERMTREEKGTVIRNLMNAGIHQMKGAVVEIARQLHLSEPTVYRYIKREKG | -0.177
HMSKKMTNEEILNFLKKVLIKHGKISGFIIDEDDNGPSSSVVASRFGGLLNAYKLINYTPER | ≥ 0.43
HMIAASQVLRDARQRSRLTQAELGRRADVPQSVISAYESARREPSVDMLARLVAAAGFDLRIGLTP | -0.377
HMVSTSVTVTGDLNVRADSRADSDLVGALIPGQTVTRLAVLDNGWSKIRFDDGAGTVVEGYVLSEYLQADG | 0.131
HMNMNDIKFGKYLKRVRKKYNFSKEYVANILKVKESLVSDWESGRLTLNDEYMEKLSLFYGVNLYKK | -0.123
HMEQVVFNGTGRRKSSIARVRIMSGKGNITVNGKALDEYFGEETLKVIVRQPLTVTDTLDKYDVIATVK | -0.0364
HMGYKDIDKLSGVDLAIYRFIVEHDEQIPYMRVRELARGAHVSNSSVMRFIRKIGYDSFPEFKVSLRS | -0.322

Sequence | soluble fraction (log2)
HMSSFSESFHKALNNLDDKHKSVFSLRHFEGFSMKEIAETLNINEGTVKSRLFYATKTLAGALKEF | -1.29
HMELPADLATVLSVDDIRAIALAEVPGSTITGVELEREEGVLVYKVKFNDGSYKLYDANTGELV | -0.238
HMNGAVAEQARKQLMAALKASEFIAEEKLDEWLDALALPEDKRTAIVDAVDELDYEEAISELEN | 0.0531
HMQAPVVNHDLIKSFERQWREIKATAKGKVRSVNLSDARSILQSFLNTLQKGPGTDSLISSVQNELSLIA | 0.00595
HMNSLGYSDFVVDVQNERVASVVIEGLIINGERRDGTKFRTVLPTIGDQRLMDDLINHNVKVLARE | 0.226
HMSGKGEFDQLLRSGEYVQAFQRANANGNVTLRRQQLLNLARHQAASGVGSGAIESLSTIQRI | 0.104
HMAEDGNMTFEEYAKRWLARQVRYAPSTLESYRRMLGRVYPFIGAIPINRLRPIALENLLAELRKRT | -0.0982
HMPSEAVQNIIGNVKSKRRVATIGQARGLASNVIKEGKFDNVSNTAMVNRLIDLGIISNSIGYQ | 0.283
HMENLIEELTAKNKEYIHSVTKQLILVGKSDEEVKEILNDILPQIIEGQKSGIIARKLLGAPTEFVSQYQP | -0.317
HMKSDVVFDITDGTVKAMLKFNRSDVTILNNDGKNYYLFTANGEFTFKYQDGSGEYYEKTVYVDWLEDE | -1.56
HMHINLEGLKKIDFRKKIGFLFGSEASGLSNKEVSYANYTLQIPTNINFKSLNLSHSLIIIAQFISSLLNS | 0.126
HMRSVTLQTDREGDILYVDGKQIGVSPQRLELSYGVHTIRAERGEQHTEKELEVTETGGETVVTLGFG | -0.0908
HMHLYDMYNLTEKEISIIRLIANGLNNKEISQELFLSEGTIKNNITNILAKLELRDRTQLAIFAFKNKIVI | -0.647
HMVGPAHIGLAVAKDQLPHWERHLTANGVEIEGRMRWDHGGESIYFRDPDAHLLELVTPGIWAN | -0.1
HMSDPSAQADALFNEGKTAEAFNVLLRLIEDSPEDQREDYRVRLLDLFRIAGNTPEVKAARRRLSALLM | -0.101
HMESPLEQLTNRELQTLQMLGKGLSTKQIAAQLNLSVKTVETYRENLKRKLNLDSGSELIRYAIHRSNE | -0.0124
HMDLPDYYFRVRENGAVVFRVGTENRQRRIEMVEIATVNVKNGNIKPHGEVDLTKADRLAIGEWLAARQAQ | -0.27
HMTTMTTGQRIAAKRKEQGLSQENLGEQLGVSRQAIYKWESDASLPDIDKLIALSRLFGVSTDYLLLE | -1.68
HMGGKAITGGEGEIIIRADKAETVAIYGIDGRLVHRVSTEAGDTKRVSVPAGIYIVKGAKVVV | 0.42
HMQISDSGELEKIVLQVIEENPKPAEQVRSGNEKAIGALVGGVMKATQGRADGGEVNRLLRQHLGL | 0.23
HMFNISEKLKKYRNALGLTQTEVAEKIEITKPTYASYEKGKDISIGTLKKLADLFEVSFESFFSE | -0.336
HMAATISPEIQAEAEKAAALGVESIKNFMASLKEKNPEQHALFSDSEKRRLYAIARKADLNTTQQG | 0.0597
HMGIIVDMSKIKQMLQLSEAGHSNRKIALELGINKETVNNYMQLIRNGRLDIRQLLKMDDPELERRFHA | 0.23
HMSSAYLTVRGIDIDVIYKDIKNLHIAVYPPFGRVRVAAPSHLDDDQVRLAVIQRLTWIKRQRERLRST | -0.336
HMYPATGTVVTAGGHLNMRSEPDRSGAILARIPNGTALTLTGKNGDWYAATYAGRSGYVSAQYISLS | -0.13
